Where “and” joins values, the source holds several entries; their conditions need not be identical. Identical values can stand only once.
Assays:
[1] = target: PKM2 (mouse (endogenous in ImKCs)) (UniProt P52480); assay: native gel or EMSA; ImKCs treated with vehicle or DPI (50 and 500 nM) for 1 h (also 6 and 12 h); proteins extracted in Native PAGE sample buffer with 1% digitonin, run on native PAGE, anti-PKM2 Western blotting
[2] = target: PKM2 (mouse (endogenous in ImKCs)) (UniProt P52480); assay: cross-linking; DSS crosslinking followed by Western blotting, after DPI treatment; also with the ERK1/2 inhibitor SCH772984

Sequence of PKM2, P52480-1 1-531 (enzyme; other documents disagree on this pair) (P52480 whole entry): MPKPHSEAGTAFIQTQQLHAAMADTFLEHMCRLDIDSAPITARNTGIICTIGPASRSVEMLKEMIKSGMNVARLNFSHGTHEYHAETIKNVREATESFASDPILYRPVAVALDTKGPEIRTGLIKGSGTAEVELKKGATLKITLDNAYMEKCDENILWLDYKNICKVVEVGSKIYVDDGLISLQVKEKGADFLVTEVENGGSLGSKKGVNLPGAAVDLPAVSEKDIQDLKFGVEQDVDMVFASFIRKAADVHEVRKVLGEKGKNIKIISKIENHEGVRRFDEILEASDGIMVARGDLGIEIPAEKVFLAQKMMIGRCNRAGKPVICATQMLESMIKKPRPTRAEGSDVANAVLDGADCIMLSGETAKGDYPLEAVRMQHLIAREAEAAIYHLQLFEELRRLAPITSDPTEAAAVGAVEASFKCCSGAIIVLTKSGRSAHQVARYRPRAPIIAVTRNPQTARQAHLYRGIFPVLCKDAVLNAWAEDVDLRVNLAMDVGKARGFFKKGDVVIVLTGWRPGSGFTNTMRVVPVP

stoichiometry N [1]: 2 and 4
stoichiometry N [2]: 2
Substance: PKM2, P52480-1 1-531 (enzyme; other documents disagree on this pair)

— PMC10821868
